The test concerns the target T1, FtsZ(D212N) (UniProt P0A9A6 1-383, D212N).
T1 construct: FtsZ, tubulin-like cell division protein, GTPase-defective derivative D212N; Polymerised with 5 mM GTP in the assay; also called FtsZ(D212N) polymers; FtsZ(D212N) protofilaments
T1 sequence (looked up): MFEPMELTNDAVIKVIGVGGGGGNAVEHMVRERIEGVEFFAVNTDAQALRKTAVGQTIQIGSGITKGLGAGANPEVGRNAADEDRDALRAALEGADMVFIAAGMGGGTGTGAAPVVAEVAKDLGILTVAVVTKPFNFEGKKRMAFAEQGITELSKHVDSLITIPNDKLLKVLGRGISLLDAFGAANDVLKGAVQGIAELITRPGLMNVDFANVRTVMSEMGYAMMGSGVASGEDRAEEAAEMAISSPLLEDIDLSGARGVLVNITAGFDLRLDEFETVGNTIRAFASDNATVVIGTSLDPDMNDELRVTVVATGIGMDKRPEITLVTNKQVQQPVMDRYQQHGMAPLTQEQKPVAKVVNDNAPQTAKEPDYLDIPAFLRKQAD
Description: co-sedimentation; FtsZ(D212N) 5 µM with GTP 5 mM, SBS17 DNA 2.5 µM and SlmA derivative 5 µM, room temperature 15 min; 80,000 rpm, TLA100.2 rotor, 15 min; supernatant and pellet on SDS-PAGE, Coomassie. As to conditions: both partners purified.

B1: SlmA(WT) (natural protein, Escherichia coli, UniProt P0C093 1-198, looked up)
chain: MAEKQTAKRNRREEILQSLALMLESSDGSQRITTAKLAASVGVSEAALYRHFPSKTRMFDSLIEFIEDSLITRINLILKDEKDTTARLRLIVLLLLGFGERNPGLTRILTGHALMFEQDRLQGRINQLFERIEAQLRQVLREKRMREGEGYTTDETLLASQILAFCEGMLSRFVRSEFKYRPTDDFDARWPLIAAQLQ
notes: SlmA, nucleoid occlusion factor, TetR-like protein of Escherichia coli; Stood in the assay with SBS17 DNA (SlmA-SBS complex); Serves also as the parent for mutation effects seen with the BACTH fusions; also called wild-type SlmA
Consider B1, for which the binding result is “binds”.

Values taken from paper PMC3573117, “Identification of the SlmA Active Site Responsible for Blocking Bacterial Cytokinetic Ring Assembly over the Chromosome” (PLoS Genetics, 2013).
